Source: patent US20240299464A1, “BOTANICAL COMPOUNDS, METHODS, AND PROCEDURES FOR MEDICINAL TREATMENT RELATED TO IMMUNOINFLAMMATION, NEUROINFLAMMATION, DEPRESSION, MEMORY, FOCUS, AND NERVE DEGENERATION” (priority 2023, published 2024)
Marks after values point to notes of the source that are not given here.

Legend:
mice = test: Forced swimming test (FST), anti-anxiety and stress effects; type: in vivo
Method: The anti-anxiety and stress effects of the Ziptamin product were investigated in mice using the forced swim test as reported in Porsolt, et al. (5). Healthy female mice, after acclimatization, were randomly divided into 4 groups, each group consisting of 6 mice, specifically: • Group 1 (Disease control): Mice were administered distilled water; • Group 2 (Control): Mice were administered fluoxetine at a dose of 6.5 mg/kg; • Group 3 (Test sample): Mice were administered Ziptamin at a dose of 25 ml/kg, divided into 2 doses/day 4 hours apart; • Group 4 (Test sample): Mice were administered Ziptamin at a dose of 50 ml/kg, divided into 2 doses/day 4 hours apart.
Mice were administered distilled water or fluoxetine at a volume of 10 ml/kg once a day or Ziptamin at doses of 25 ml/kg and 50 ml/kg for 7 consecutive days, divided into 2 doses/day, with a 4-hour interval between doses. On day 7, 60 minutes after administering distilled water, fluoxetine, or Ziptamin, mice were placed in a cylindrical glass tube (diameter 20 cm, height 50 cm) containing water at a temperature of 23-25° C. and a depth of 20 cm for 6 minutes. Initially, the mice struggled to escape the water, but then gradually adapted and performed only the necessary movements to keep their heads above water (immobility state). Filming lasted for 6 minutes, including 1 minute for the mice to stabilize and adapt, and the remaining 5 minutes to record the movements and behavior of the mice in the water, including swimming time (mice moving their limbs in the water as if rowing in the center of the cylinder), struggling (front limbs moving quickly and strongly in or above the water, with a tendency to swim and hit the front limbs against the walls of the cylinder), and immobility (ceasing to struggle, only performing necessary movements to keep the head afloat) (FIG. 1). The test sample reduced anxiety and stress, decreasing immobility time and increasing swimming and struggling time in the test mice. After 6 minutes, the mice were removed from the water and dried to prevent hypothermia. Results are presented as mean values±SEM (standard error of the mean). Differences between groups were analyzed using the Kruskal-Wallis test and Mann-Whitney test with SPSS 26.0 software. A statistical significance is considered when the p-value is <0.05.

[1] = test system: mice with immunosuppression induced by cyclophosphamide; test: Immune stimulatory effects on mice with immunosuppression induced by cyclophosphamide; type: in vivo; conditions: for Body weight: CYP 150 mg/kg i.p. day 1
Method: The adult human dosage of Ziptamin is 0.5-1 bottle/day×250 ml/bottle A normal adult weighs about 60 kg→Mouse dose of Ziptamin: Dmouse=(0.5*250*11.76)/60=25 ml/kg and Dmouse=(1*250*11.76)/60=50 ml/kg. The dose conversion factor from adults to mice is 11.76 according to the Guidelines for preclinical and clinical testing of traditional medicine, herbal medicine issued by the Department of Science, Technology and Training-Ministry of Health under Decision No. 141/QD-K2DT dated 27 Oct. 2015.
Healthy male mice, after stable housing, were randomly divided into 5 groups, each with 8 mice: • Group 1 (Physiological): Mice were given distilled water; • Group 2 (Disease control): Mice were given distilled water; • Group 3 (Control): Mice were injected […] with filgrastim at a dose of 50 μg/kg; • Group 4 (Test group): Mice were given Ziptamin at a dose of 25 ml/kg, divided into 2 doses/day 4 hours apart; • Group 5 (Test group): Mice were given Ziptamin at a dose of 50 ml/kg, divided into 2 doses/day 4 hours apart; • Group 1 (physiological) were injected intraperitoneally with 0.9% NaCl, volume 10 ml/kg. Mice from groups 2 to 5 were injected intraperitoneally with CYP (dissolved in 0.9% NaCl) at a single dose of 150 mg/kg on day 1, injection volume 10 ml/kg. Mice in group 3 were subcutaneously injected with filgrastim (dissolved in 5% glucose), dose 50 μg/kg, once a day, from day 2 to day 4, the first dose 24 hours after CYP injection. Mice in groups 4 and 5 were given Ziptamin at doses of 25 ml/kg and 50 ml/kg from day 1 to day 4, divided into 2 doses/day, 4 hours apart between doses. Mice in the test groups were recorded for weight daily before administering distilled water, test sample, or medication. On day 4, one hour after the filgrastim injection or Ziptamin administration, mice were euthanized with CO2 gas, blood was collected from the heart to determine the leukocyte formula at Medlatec clinic; spleen and thymus were collected, rinsed with cold 0.9% NaCl, dried, weighed, and the relative organ mass was determined using the formula:
[formula] • Where: • Porgan: organ weight (g) • Pbody: body weight (g)
Results are presented as mean±SEM (standard error of mean). Differences between groups were analyzed using Kruskal-Wallis and Mann-Whitney tests with SPSS 26.0 software. A difference was considered statistically significant when the p-value <0.05.

[2] = fluoxetine 6.5 mg/kg once a day, 7 days, female mice, n = 6, 5 minutes recorded
[3] = filgrastim 50 μg/kg day 2 to day 4, CYP 150 mg/kg, blood day 4, n = 8
[4] = filgrastim 50 μg/kg day 2 to day 4, CYP 150 mg/kg, day 4, n = 8

Molecule: CNCCC(Oc1ccc(C(F)(F)F)cc1)c1ccccc1 (stereo not drawn) [Fluoxetin, fluoxetine]
- Time Immobility (mice; [2]): 53.17 ± 29.27 s
- Time Struggling (mice; [2]): 15.33 ± 8.52 s
- Time Swimming (mice; [2]): 231.50 ± 28.25 s
- decrease in immobility time compared to the disease control group (mice; fluoxetine 6.5 mg/kg, p<0.01): 68.66%
- increase in swimming time compared to the disease control group (mice; fluoxetine 6.5 mg/kg, p<0.01): 90.27%
- paddling time relative to the disease control group (mice; fluoxetine 6.5 mg/kg, p>0.05): 1.77 times

B1: filgrastim (protein, UniProt P09919 31-207, looked up)
Granulocyte …: TPLGPASSLPQSFLLKCLEQVRKIQGDGAALQEKLVSECATYKLCHPEELVLLGHSLGIPWAPLSSCPSQALQLAGCLSQLHSGLFLYQGLLQALEGISPELGPTLDTLQLDVADFATTIWQQMEELGMAPALQPTQGAMPAFASAFQRRAGGVLVASHLQSFLEVSYRVLRHLAQP
modifications: filgrastim
- Body weight ([1]; Day 1, filgrastim 50 μg/kg group, n = 8): 19.34 ± 0.97 g
- Body weight ([1]; Day 2, filgrastim 50 μg/kg once a day from day 2, n = 8): 18.19 ± 1.21 g
- Body weight ([1]; Day 3, filgrastim 50 μg/kg once a day from day 2, n = 8): 17.64 ± 1.41 g
- Body weight ([1]; Day 4, filgrastim 50 μg/kg once a day from day 2, n = 8): 17.08 ± 1.52 g
- Ratio WBCC Lympho [1, 3]: 87.26 ± 4.57 %
- Ratio WBCC Mono [1, 3]: 7.00 ± 1.91 %
- Ratio WBCC Neutral [1, 3]: 5.74 ± 2.84 %
- Volume WBC Lympho [1, 3]: 2.26 ± 0.60**^# 10^9/L
- Volume WBC Mono [1, 3]: 0.15 ± 0.10**^# 10^9/L
- Volume WBC Neutral [1, 3]: 0.25 ± 0.13** 10^9/L
- Volume WBC Total WBC [1, 3]: 2.66 ± 0.73**^# 10^9/L
- Relative weight of the spleen [1, 4]: 0.16 ± 0.05 % g/g
- Relative weight of the thymus [1, 4]: 0.06 ± 0.03 % g/g
- total white blood cell count, lymphocyte count, monocyte count, proportion of neutrophils and lymphocytes compared to the disease control group ([1]; filgrastim 50 μg/kg subcutaneously, p<0.05): increase
- weight of the thymus compared to the disease control group ([1]; filgrastim 50 μg/kg, end of the experiment): remained unchanged
